Our source for the Kd values is US7732209.

Common to all, as to assay: EMSA
Background: A gel shift assay detects complexes by their altered migration in electrophoresis.

The target in series [1] is T1, MBP-Tnp (Mos-1 transposase, phosphorylated, insect cells) (Drosophila mauritiana) (UniProt Q7JQ07).
T1 sequence: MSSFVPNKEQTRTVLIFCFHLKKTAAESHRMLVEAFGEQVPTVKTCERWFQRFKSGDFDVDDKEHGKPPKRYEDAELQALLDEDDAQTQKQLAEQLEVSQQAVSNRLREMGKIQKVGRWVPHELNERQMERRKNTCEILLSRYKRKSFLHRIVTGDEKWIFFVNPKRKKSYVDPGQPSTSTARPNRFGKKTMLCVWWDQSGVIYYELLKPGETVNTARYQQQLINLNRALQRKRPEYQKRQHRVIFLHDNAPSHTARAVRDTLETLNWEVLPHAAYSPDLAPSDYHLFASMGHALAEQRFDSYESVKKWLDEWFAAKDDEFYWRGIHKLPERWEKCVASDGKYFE
The conditions noted are these: single Kd; Scatchard; 5 mM MgCl2, 20 mM Tris pH 9, ice.

The target of series [2] is T2, MBP-Tnp dephosphorylated with CIP (Drosophila mauritiana) (UniProt Q7JQ07).
T2 sequence: T1 sequence
The conditions noted are these: Scatchard, 5 mM MgCl2, 20 mM Tris pH 9, ice.

Series [3] concerns the target T3, Mos-1 mariner transposase (Tnp), produced in bacteria (Drosophila mauritiana) (UniProt Q7JQ07).
T3 sequence: T1 sequence
The conditions noted are these: CITED (publication submitted), cited from earlier work.

For series [4], the target named is T4, Mos-1 transposase (Tnp), rabbit reticulocyte TnT, phosphorylated (Drosophila mauritiana) (UniProt Q7JQ07).
T4 sequence: T1 sequence
The conditions noted are these: single Kd; Scatchard; 5 mM MgCl2, 20 mM Tris pH 9, ice.

In series [5] the target is T5, Mos-1 transposase in vitro translated, dephosphorylated with CIP (Drosophila mauritiana) (UniProt Q7JQ07).
T5 sequence: T1 sequence
The conditions noted are these: Scatchard, 5 mM MgCl2, 20 mM Tris pH 9, ice.

Broadly, the Kd is the constant that tells how readily two partners part at equilibrium. As for “Mos-1 ITR 3' (EcoRI/XbaI fragment of pBS(3'))”, the Kd in series [1] is 39 nM; in series [2] (Kd1, second Kd (Kd2) 24.69 nM), 0.66 nM; in series [2] (Kd2 (second site)), 24.7 nM; in series [3] (Kd1, specific ITR 3' binding, Scatchard), 0.6 nM; in series [3] (Kd2, ITR bound as integration target), 10 nM; in series [4], 74 nM. In addition, the Kd turned out to be 1.3 nM in series [5] (Kd1, second Kd (Kd2) 15.5 nM) and 15.5 nM in series [5] (Kd2 (second site)).
